Results as given in article PMC12243196, “Division of the large and multifunctional glycoside hydrolase family 2: high functional specificity and biochemical assays in the uncharacterized subfamilies” (Biotechnology for Biofuels and Bioproducts, 2025).
Where two headings read alike, the source gives them in different places.

B1: (Ruminiclostridium cellobioparum subsp. termitidis CT1112) (protein)
chain: MNNRKQICLNGLWDFCPGNGTLDRIPRKWDKTQIKVPSPWNINTFAGPEKLTCGEEEIFLRGGEFNLYPEYPKAWENAQSGWYKTEMFIDEEWRGKVITLKFNAVLFYSEFYINGKLISTDADGFLPHEFPVQDHVKYGGSNTLVVGVKKLDAFRYKNEAGKNRIEYPTGSFWGKTMGGIWQDVYLNVYPHDHITDIFVRTDVNSNILRVDADLAADRGEDFTVGMVLREWSGDRSFKLACGLPVNGNSVEFIFDYSGIKDEIRQWWPDSPELYYIDVILHSGNEIVDVKTARFGFKSFEVRGKQFYLNGTPINLRNDSWHYMGFAYQNEEYARLWYKMARDANVNCIRLHAQVYPEFFLDMADEMGMMIVDETSIWASHCEFHYSMEFVENGKKHIKRMIERDRNHPSIIIWSVENECIMAYRVSADDGVKDENELNERLFLLAEYAGSLDPTRPVSGDGSQDMGGRLDVYSLHYPGKKGPENVNKPVTIGEMGSLYYATPDCVCNQYGEKTYLSFDGRLEAIGRELFENLKHERKWAAQVCVFNLVWYGLKPLPFKERIINYPDLSLPGVKPTRTGPYISTLNAAYDDSLPEYIPNTVFEWVRQAYLPERFFFEEGRSRYYNGEAGAKKISVFNDSFEEKEYILEWQMEQKGEILGSGNKSVLVNPAGYEELDIEFDLPAADSIERLSLRILMKFRDNIVFEDVCSIKVYNKNHIFSFMGGFGKVGILGGSRLDANEFFEKSGIETVDGLTQGIDIYLLEECTEEAAAGLTWACCSVLDLLPEKHGFKSWLSHGSAENAFLNVDDRTLMENLEEEDLSNWGNGYLCNNTFQDNLCVSAFNLFCTGKGIPLILDVKNGKARQLVSTIPLLKWAAEEPAALVLLSNLIAYAAQTGKTEAHECVLVSKKDSDMHRSFENMGIDFTLAEVKNRDQIRSLREVKLLVADGSCRLDYLDEIMPYNAEQILLCNFDEATLPDSLKGYIEVVEKPLYQLIKAGKDNALTDGIHAGDLYGLEAGQETVICKRPFLIKDDRKVKGLLKNADLNWRMWNFQGEDRKTVSILRSEQETKTPLYGLAETHINTVKVILGQIDMSYANRKLERLASRFFLQYGTYSKL
B2: (Saccharophagus degradans 2-40) (protein)
chain: MVVNTDITQWSLTKTNANGAQTPADIIPLQQWLAVPVPGTVAQAVGDAGPQEDLEQFDWWYTAQFPLPKTGKRTYLQCDGLATLSEVWVNDQQVLYSQSMFENHKLDITDYLQADNTLAIVFKALAPHLAERRARPQWKTNLVDNQNLRWFRTSLLGRMPGWTPPVKAIGPWRDISIVSVAKFDLVECTVFSEVDEALNGKVHINLELDFIDAKLAADPQIQFLLDGKIYPITAKPIKGGGAFIDTEIAIEQPQLWWPHTHGEPYLHAYKITAIIDGEVTTLTEGKLGFKRVTAANQTNQLALEVNNNKIFCRGACWATPNITSLNASKQEYRHLLKLLVDAGANMVRIGGTMVYEHDDFYALCDELGILVWQDFMFANMDYPFADEDFSKLVAKEVRQQITRLKQTASIAVFCGNSEMQQQAAMMGMEQTQWANALFDTFITQKLEEQQLTLPYFTSSPCEGGLPFHTDAGLTHYYGVGAYKLMPDHFTVREVGFTSECLGFSHIPVTASLKQAFESPYPATHTPSWKAGIPRDNSAGWDFEDIRNFYLEKIFGVVADTLRYSDPETYFKLATIATAEMVSSVYSIWRASISNCNGALAWFYQDIVAGAGWGIVDSFARPKAAYYFLKRVWQPQQVLLINNSLNGYTLEVQNETAHTLQAQLNIVLVGLSDNIVAEHTQEITLAANSVGTHKLDTVFGRFMDATHAYKFGRQTIYAVVAELRNESGELISQAVSFPGCRRINTGAGEITGSITSDSDNESVVTLTPSVFVEYACLESKTTQFSDNYTCMLPGKTYSFKACEQIKSVHVSTLNLQKEFRVT
B3: (Zobellia galactanivorans) (protein)
chain: QTEKVDLPGEERMLLSGNWKFHAIYGEGSNYIDISETLEDIVIDNTDKDRVSVKGDWKTRSEGERGSGFLGTDYLQRDFKSGESDQNYVRYRPELPESGFYEAFVRFPFASHLTAEVNVNHAQGITAAYFNQRNRCDQWLSLGVFSFDKTLDSYVEVTAITASTVVADAVMFRPVSKEKMEEADIEKSSVFQVDFDDSNWKDLRVPGHWGMLNAYSNYTGKGWYRKTFELPKNWKSVSNERIRLKFDAVYHIARVFLNGELVGLHQGGFTPFEFDITDKLNYNGQNVLAVEADNNALVGATWNWGGIIREVHLIKNNDVRISYQYIHADPDLKKGSANLKLKVRIKNSSTRQRTVLLAAHIEEASSPVDLTYKVKVPANSTQEIQLATTLPATDVKLWHFDTPNLYHLTTTISENGQVLDTQKDRFGIRKIELTDSQLILNGEPVRLSGFNRVSDHRYWGSSEPQYLIDKDVDLMKNAGANFMRIMHGTQNKKLMDRCDEKGILIFEEVNVRELTNPEFTPPHYPLAKQWLKEMIERDVNHPSIIGWSVGNELKDHFDYAKETIDYVKKELDPYRLVTCVSNSGWRDSATPEKDPNTLVDIIMHNLYPFQGTPDKVFKTLRAKWPDKPIFISEYGIKPMATTSLDGDIPELSEWNDHLRGKNTYVIGASLWTFNDYRSGYAATSPEENRVWGLVNTWRQKRKLYHRIQKENSPLADLKIDGIDLKNGGAKVRITPKPVNGYPVYSLKGYTLEFTMYDKQGEILFSKTHSLPHIVPGGKPTEVAIDWQRYMTGMAQIHAAVISPNGYIRHQTSISLELPEKTSILAIEKGHGTVRVHYRPVFGADTYYVAYADGKGLERKSDTSTTHSIEIKDLDPEEEYAFSVIAQNSKGKSVPSGTRTTKANADVLPPMIWDAFLSDGKLVVGYSGAPDDVEYIVKYGLRDSYFPYKNSTRTKGMTVIDFEGDDPHFVSIKKKTKTGESDWSKPIHVYTIRNKERYRN

Legend:
[1] = biological target: T1, AmGH2_9 (Akkermansia muciniphila, UniProt B2UM41); assay: activity screening, absorbance at […] nm; type: biochemical
T1 construct: gene Amuc_1667

[2] = system: T2, BfGH2_9
T2 construct: gene BF638R_1918

[3] = substrate: O=[N+]([O-])c1ccc(O[C@@H]2O[C@H](CO)[C@H](O)[C@H](O)[C@H]2O)cc1; assay: purified protein

T2 sequence (E1WVB9 30-864 limits assumed): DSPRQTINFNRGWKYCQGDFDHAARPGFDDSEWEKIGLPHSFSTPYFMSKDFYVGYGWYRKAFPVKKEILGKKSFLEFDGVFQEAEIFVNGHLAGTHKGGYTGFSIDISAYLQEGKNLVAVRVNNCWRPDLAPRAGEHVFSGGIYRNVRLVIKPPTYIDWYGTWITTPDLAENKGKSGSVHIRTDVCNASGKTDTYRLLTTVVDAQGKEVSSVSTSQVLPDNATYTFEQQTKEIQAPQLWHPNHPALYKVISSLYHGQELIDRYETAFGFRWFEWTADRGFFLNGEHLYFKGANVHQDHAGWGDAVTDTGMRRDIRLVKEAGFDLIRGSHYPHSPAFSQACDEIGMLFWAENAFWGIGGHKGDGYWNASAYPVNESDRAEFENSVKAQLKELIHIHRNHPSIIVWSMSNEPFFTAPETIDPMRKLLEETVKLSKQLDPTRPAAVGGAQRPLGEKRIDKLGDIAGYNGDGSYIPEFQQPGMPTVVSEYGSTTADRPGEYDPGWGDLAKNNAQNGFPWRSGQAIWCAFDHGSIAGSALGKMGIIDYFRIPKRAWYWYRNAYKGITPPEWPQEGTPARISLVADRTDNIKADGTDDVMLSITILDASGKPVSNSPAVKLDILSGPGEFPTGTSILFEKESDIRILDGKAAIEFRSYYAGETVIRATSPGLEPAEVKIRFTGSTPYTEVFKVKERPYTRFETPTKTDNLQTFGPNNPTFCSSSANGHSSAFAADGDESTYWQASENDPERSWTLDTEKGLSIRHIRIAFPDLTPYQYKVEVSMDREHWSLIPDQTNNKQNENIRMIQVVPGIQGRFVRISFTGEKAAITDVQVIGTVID
T1 sequence (B2UM41 entry or part of it): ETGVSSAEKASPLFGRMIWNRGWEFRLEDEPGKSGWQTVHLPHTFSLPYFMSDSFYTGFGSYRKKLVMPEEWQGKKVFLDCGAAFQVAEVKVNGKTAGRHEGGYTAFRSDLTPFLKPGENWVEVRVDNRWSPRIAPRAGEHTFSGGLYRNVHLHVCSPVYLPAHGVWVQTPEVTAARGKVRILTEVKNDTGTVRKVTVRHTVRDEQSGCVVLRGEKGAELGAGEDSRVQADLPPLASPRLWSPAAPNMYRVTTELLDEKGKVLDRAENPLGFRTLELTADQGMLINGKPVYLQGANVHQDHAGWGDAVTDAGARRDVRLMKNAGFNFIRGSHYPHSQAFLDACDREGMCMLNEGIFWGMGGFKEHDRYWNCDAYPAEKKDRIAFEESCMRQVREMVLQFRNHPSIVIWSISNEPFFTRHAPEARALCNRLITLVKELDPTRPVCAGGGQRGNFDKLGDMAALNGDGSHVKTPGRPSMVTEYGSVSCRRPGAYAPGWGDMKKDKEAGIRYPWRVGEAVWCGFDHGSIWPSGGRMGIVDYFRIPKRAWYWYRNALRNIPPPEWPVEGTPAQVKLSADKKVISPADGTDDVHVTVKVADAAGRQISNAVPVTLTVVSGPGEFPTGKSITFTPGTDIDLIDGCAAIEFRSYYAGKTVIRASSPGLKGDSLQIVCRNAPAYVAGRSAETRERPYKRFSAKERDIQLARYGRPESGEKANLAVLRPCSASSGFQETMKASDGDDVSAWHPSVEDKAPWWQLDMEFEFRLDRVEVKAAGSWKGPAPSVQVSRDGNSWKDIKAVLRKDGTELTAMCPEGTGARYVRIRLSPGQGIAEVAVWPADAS

| Molecule | Km ([3]; 40.0 °C) [µM] | kcat ([3]; 40.0 °C) [s⁻¹] | kcat/Km ([3]; 40.0 °C) [M⁻¹ s⁻¹] | other results |
| --- | --- | --- | --- | --- |
| O=[N+]([O-])c1ccccc1O[C@@H]1O[C@H](CO)[C@H](O)[C@H](O)[C@H]1O [oNP-β-D-Galp] |  |  |  | activity screening, absorbance at 405 nm [1]: All the enzymes also displayed activity on oNP-β-D-Galp (data not shown); activity screening, absorbance at 405 nm [2]: All the enzymes also displayed activity on oNP-β-D-Galp (data not shown) |
| B1 | 40 ± 1.2 | 0.0233 | 586 |  |
| B2 | 64 ± 12.6 | 0.02 | 306 |  |
| B3 |  |  |  | Km [3]: 67 ± 8.3 µM; kcat [3]: 0.0133 s⁻¹; kcat/Km [3]: 204 M⁻¹ s⁻¹ |
